{"source": "patent US20120184020A1", "about": "“ENGINEERED MICROORGANISMS WITH ENHANCED FERMENTATION ACTIVITY” (Verdezyne, Inc., priority 2009, published 2012)", "molecules": {"B1": {"name": "R. flavefaciens, FD-1 XI: xylose isomerase of Ruminococcus flavefaciens FD1, ZP_06143883.1, SEQ ID NO: 110 (protein, listed as Ruminococcus flavefaciens)", "chain": "MEFFKNISKIPYEGKDSTNPLAFKYYNPDEVIDGKKMRDIMKFALSWWHTMGGDGTDMFGCGTADKTWGENDPAARAKAKVDAAFEIMQKLSIDYFCFHDRDLSPEYGSLKDTNAQLDIVTDYIKAKQAETGLKCLWGTAKCFDHPRFMHGAGTSPSADVFAFSAAQIKKALESTVKLGGTGYVFWGGREGYETLLNTNMGLELDNMARLMKMAVEYGRSIGFKGDFYIEPKPKEPTKHQYDFDTATVLGFLRKYGLDKDFKMNIEANHATLAQHTFQHELCVARTNGAFGSIDANQGDPLLGWDTDQFPTNIYDTTMCMYEVIKAGGFTNGGLNFDAKARRGSFTPEDIFYSYIAGMDAFALGYKAASKLIADGRIDSFISDRYASWSEGIGLDIISGKADMAALEKYALEKGEVTDSISSGRQELLESIVNNVIFNL"}, "B2": {"name": "Codon-optimized EDA from P. aeruginosa: codon-optimized version of the P. aeruginosa EDA gene (protein, UniProt O68283 1-220, looked up)", "2-dehydro-3-deoxy-phosphogluco …": "MHNLEQKTARIDTLCREARILPVITIDREADILPMADALAAGGLTALEITLRTAHGLTAIRRLSEERPHLRIGAGTVLDPRTFAAAEKAGASFVVTPGCTDELLRFALDSEVPLLPGVASASEIMLAYRHGYRRFKLFPAEVSGGPAALKAFSGPFPDIRFCPTGGVSLNNLADYLAVPNVMCVGGTWMLPKAVVDRGDWAQVERLSREALERFAEHRRH", "modifications": "codon-optimized gene"}, "B3": {"name": "Escherichia coli: xylose isomerase from donor organism Escherichia coli (protein, listed as Escherichia coli)", "chain": "MQAYFDQLDRVRYEGSKSSNPLAFRHYNPDELVLGKRMEEHLRFAACYWHTFCWNGADMFGVGAFNRPWQQPGEALALAKRKADVAFEFFHKLHVPFYCFHDVDVSPEGASLKEYINNFAQMVDVLAGKQEESGVKLLWGTANCFTNPRYGA"}, "B4": {"name": "XI-Rp10: chimera: first 10 amino acids of Piromyces xylose isomerase then amino acids 11 to 438 of Ruminococcus enzyme, SEQ ID NO. 58 (protein)", "chain": "MAKEYFPQIQQYQGPKSTDPLSFKYYNPEEVINGKTMREHLKFALSWWHTMGGDGTDMFGCGTTDKTWGQSDPAARAKAKVDAAFEIMDKLSIDYYCFHDRDLSPEYGSLKATNDQLDIVTDYIKEKQGDKFKCLWGTAKCFDHPRFMHGAGTSPSADVFAFSAAQIKKALESTVKLGGNGYVFWGGREGYETLLNTNMGLELDNMARLMKMAVEYGRSIGFKGDFYIEPKPKEPTKHQYDFDTATVLGFLRKYGLDKDFKMNIEANHATLAQHTFQHELRVARDNGVFGSIDANQGDVLLGWDTDQFPTNIYDTTMCMYEVIKAGGFTNGGLNFDAKARRGSFTPEDIFYSYIAGMDAFALGFRAALKLIEDGRIDKFVADRYASWNTGIGADIIAGKADFASLEKYALEKGEVTASLSSGRQEMLESIVNNVLFSL"}, "B5": {"name": "XI-Rp15: chimera: first 15 amino acids of Piromyces xylose isomerase then amino acids 16 to 438 of Ruminococcus enzyme, SEQ ID NO. 60 (protein)", "chain": "MAKEYFPQIQKIKFEKSTDPLSFKYYNPEEVINGKTMREHLKFALSWWHTMGGDGTDMFGCGTTDKTWGQSDPAARAKAKVDAAFEIMDKLSIDYYCFHDRDLSPEYGSLKATNDQLDIVTDYIKEKQGDKFKCLWGTAKCFDHPRFMHGAGTSPSADVFAFSAAQIKKALESTVKLGGNGYVFWGGREGYETLLNTNMGLELDNMARLMKMAVEYGRSIGFKGDFYIEPKPKEPTKHQYDFDTATVLGFLRKYGLDKDFKMNIEANHATLAQHTFQHELRVARDNGVFGSIDANQGDVLLGWDTDQFPTNIYDTTMCMYEVIKAGGFTNGGLNFDAKARRGSFTPEDIFYSYIAGMDAFALGFRAALKLIEDGRIDKFVADRYASWNTGIGADIIAGKADFASLEKYALEKGEVTASLSSGRQEMLESIVNNVLFSL"}, "B6": {"name": "XI-Rp5: chimera: first 5 amino acids of Piromyces xylose isomerase followed by Ruminococcus xylose isomerase, SEQ ID NO. 56 (protein)", "chain": "MAKEYFSNIGKIQYQGPKSTDPLSFKYYNPEEVINGKTMREHLKFALSWWHTMGGDGTDMFGCGTTDKTWGQSDPAARAKAKVDAAFEIMDKLSIDYYCFHDRDLSPEYGSLKATNDQLDIVTDYIKEKQGDKFKCLWGTAKCFDHPRFMHGAGTSPSADVFAFSAAQIKKALESTVKLGGNGYVFWGGREGYETLLNTNMGLELDNMARLMKMAVEYGRSIGFKGDFYIEPKPKEPTKHQYDFDTATVLGFLRKYGLDKDFKMNIEANHATLAQHTFQHELRVARDNGVFGSIDANQGDVLLGWDTDQFPTNIYDTTMCMYEVIKAGGFTNGGLNFDAKARRGSFTPEDIFYSYIAGMDAFALGFRAALKLIEDGRIDKFVADRYASWNTGIGADIIAGKADFASLEKYALEKGEVTASLSSGRQEMLESIVNNVLFSL"}, "B7": {"name": "Mutant 13: S. cerevisiae ZWF1 site-directed mutant A24G/A51D (protein, UniProt P11412 2-505, looked up, variant A24G A51D)", "Glucose-6-phosphate …": "SEGPVKFEKNTVISVFGASGDLGKKKTFPALFGLFREGYLDPSTKIFGYDRSKLSMEEDLKSRVLPHLKKPHGEADDSKVEQFFKMVSYISGNYDTDEGFDELRTQIEKFEKSANVDVPHRLFYLALPPSVFLTVAKQIKSRVYAENGITRVIVEKPFGHDLASARELQKNLGPLFKEEELYRIDHYLGKELVKNLLVLRFGNQFLNASWNRDNIQSVQISFKERFGTEGRGGYFDSIGIIRDVMQNHLLQIMTLLTMERPVSFDPESIRDEKVKVLKAVAPIDTDDVLLGQYGKSEDGSKPAYVDDDTVDKDSKCVTFAAMTFNIENERWEGVPIMMRAGKALNESKVEIRLQYKAVASGVFKDIPNNELVIRVQPDAAVYLKFNAKTPGLSNATQVTDLNLTYASRYQDFWIPEAYEVLIRDALLGDHSNFVRDDELDISWGIFTPLLKHIERPDGPTPEIYPYGSRGPKGLKEYMQKHKYVMPEKHPYAWPVTKPEDTKDN"}}, "key": {"[1]": {"assay": "Xylose isomerase activity/kinetic assay on soluble whole cell extract (sorbitol dehydrogenase coupled, NADH, A340)", "format": "biochemical", "settings": "for Km: xylose 40-500 mM", "experimental": "[…] Louis, Mo.), and about 2 U sorbitol dehydrogenase (Roche) at about 30° C. […] A Beckman DU-800 was utilized with an Enzyme Mechanism software package (Beckman Coulter, Inc.), and the change in the A340 was monitored for 2-3 minutes.\n[…] Louis, Mo.), and 2 U Sorbitol Dehydrogenase (SDH) (Roche, Indianapolis, Ind.) at about 30° C. […] A Beckman DU-800 spectrophotometer was utilized with an Enzyme Mechanism software package (Beckman Coulter, Inc, Brea, Calif.), and the change in the A340 was monitored for 2-3 minutes.\n[…] Louis, Mo.), and 2 U sorbitol dehydrogenase (SDH) (Roche, Indianapolis, Ind.) at about 30° C. […] A Beckman DU-800 spectrophotometer was utilized with an Enzyme Mechanism software package (Beckman Coulter, Inc, Brea, Calif.), and the change in the A340 was monitored for 2-3 minutes.\nApproximately 20 μg of soluble whole cell extract from each transformed cell line was prepared using Y-PER plus reagent as described above was incubated in a solution containing about 100 mM Tris, pH 7.5, 10 mM MgCl ? 2, 0.15 mM NADH (Sigma, St. Louis, Mo.), and 2 U Sorbitol Dehydrogenase (SDH) (Roche, Indianapolis, Ind.) at about 30° C. […] A Beckman DU-800 spectrophotometer was utilized with an Enzyme Mechanism software package (Beckman Coulter, Inc, Brea, Calif.), and the change in the A340 was monitored for 2-3 minutes."}, "[2]": {"system": "engineered yeast (S. cerevisiae)", "assay": "Heterologous xylose isomerase expression in yeast (active yes/no)", "format": "cell-based", "settings": "xylose isomerase of donor organism expressed in engineered yeast (S. cerevisiae)"}, "[3]": {"assay": "EDA activity assay: S. cerevisiae EDA extracts with saturating E. coli EDD extract (LDH coupled, NADH)", "format": "biochemical", "settings": "EDAs expressed in S. cerevisiae, saturating E. coli EDD extract", "description": "EDA genes isolated from a variety of sources were expressed in yeast and evaluated independently of EDA activity, to identify EDA activities suitable of inclusion in an engineered yeast strain. […] The activity of integrated EDAs in Thermosacc-Gold haploids, were also evaluated in this manner.\nEDD extractions (adapted from Chemyan et al, Protein Science 16:2368-2377, 2007): • 1) Pellet cells in 50 ml conical tubes, 4° C., 3,000 rpm, 10 mins, discard supernatant. • 2) Resuspend in 2 ml degassed PDGH buffer (20 mM MES pH 6.5, 30 mM NaCl, 5 mM MnCl2, 0.5 mM FeCl2, 10 mM 2-mercaptoethanol, 10 mM cysteine, sparged with nitrogen gas). Move to hungate tube. • 3) Add 0.1% Triton X-100, 10 ng/ml DNase, 10 μg/ml PMSF, 10 μg/ml TAME (Na-(p-toluene sulfonyl)-L-arginine methyl ester), 100 μg/ml lysozyme. • 4) Sparge hungate tube with nitrogen gas, cap and seal. Incubate 2 hours at 37° C., swirl occasionally. • 5) Clarify by centrifugation in 2-ml tube, 4° C., 10 mins, 14,000 rpm. Keep supernatant. • 6) Treat with 150 mM pyruvate and 10 mM sodium cyanoborohydride (work in hood) to inactivate aldolase activity. Incubate 30 mins at room temperature. • 7) During incubation, pre-equilibrate PD-10 column from GE • a. Remove top cap, pour off storage buffer. • b. Cut off bottom tip, fit in 50 ml conical with adapter. • c. Pour 5 ml of 20 mM MES buffer, pH 6.5 (total of 5 times). Discard flow-through. • 8) Run sample through column, then add MES buffer to a total of 2.5 ml volume added. Discard flow-through. • 9) Run 3.5 ml 20 mM MES pH 6.5 buffer to elute protein. Discard column in appropriate waste receptacle. • 10) Perform Bradford assay (1:10 or 1:20 dilution).\n• 1) Spin down in 50 ml conicals, 4° C., 3,400 rpm, 5 mins. […]\nEach reaction contains 50 mM Tris-HCl, pH 7, 10 mM MgCl2, 0.15 mM NADH, 15 μg LDH, saturating amounts of EDD determined empirically (usually −100 μg), 1-50 μg EDA (depending on level of activity), and 1 mM 6-phosphogluconate. Reactions are started by the addition of 6-phosphogluconate and monitored for 5 mins at 30° C."}, "[4]": {"assay": "ZWF1 (glucose-6-phosphate dehydrogenase) kinetic assay on crude extract with NADP+ or NAD+", "format": "biochemical", "experimental": "Strain BY4742 zwf1 (ATCC Cat. No. 4011971; Winzeler E A, et al. Science 285: 901-906, 1999. PubMed: 10436161) was used as the base strain for all ZWF1 assays. The assays were performed as follows: A 5 ml overnight of the strain expressing the ZWF1 gene was grown in SCD-ura. A 50 ml culture of the strain was then grown for about 18 hours from an initial OD600 of about 0.2 until it had reached about OD600 of about 4. The cells were centrifuged at 1046×g washed twice with 25 ml cold sterile water, and resuspended in 2 ml/g Yper Plus (Thermo Scientific) plus 1×protease inhibitors (EDTA-free). The cells were allowed to lyse at room temperature for about 30 minutes with constant rotation of the tubes. The lysate was centrifuged at 16,100×g for 10 minutes at 4° C. and the supernatants were transferred to a new 1.5 ml microcentrifuge tube. Quantification of the lysates was performed using the Coomassie-Plus kit (Thermo Scientific, San Diego, Calif.) as directed by the manufacturer.\nThe reaction was started with 20 mM glucose-6-phosphate and the reaction was monitored at A340. The specific activity was measured as the μmol substrate/min/mg protein."}}, "data": [{"molecule": "Piromyces xylose isomerase: xylose isomerase from Piromyces strain E2, SEQ ID NO. 35 [reference compound]", "values": [{"measurement": "Specific Activity", "setting": "[1]; soluble whole cell extract, about 30° C.", "value": 2.02, "unit": "µmol/min/mg"}, {"measurement": "Active? (yes/no)", "setting": "[2]", "value": "Yes"}]}, {"molecule": "B1", "values": [{"measurement": "activity (slope) at saturating xylose (FIG. 25)", "setting": "[1]; 500 mM xylose, 100 μg total soluble crude extract, expressed in S. cerevisiae", "value": "highest activity of the candidates tested"}, {"measurement": "specific activity relative to native XI control activity", "setting": "[1]; xylose concentrations between 40 and 500 nM (so in the source)", "value": "greater than 2 fold"}]}, {"molecule": "B2", "values": [{"measurement": "EDA activity compared (in words)", "setting": "[3]", "value": "slight improvement over the native sequence"}]}, {"molecule": "B3", "values": [{"measurement": "Active? (yes/no)", "setting": "[2]", "value": "No"}]}, {"molecule": "B4", "values": [{"measurement": "Specific Activity", "setting": "[1]; chimeric variants", "value": 2.10, "unit": "µmol/min/mg"}, {"measurement": "Km", "setting": "[1]; chimeric variants", "value": 75.8, "unit": "mM"}]}, {"molecule": "B5", "values": [{"measurement": "Specific Activity", "setting": "[1]; chimeric variants", "value": 1.53, "unit": "µmol/min/mg"}, {"measurement": "Km", "setting": "[1]; chimeric variants", "value": 49.3, "unit": "mM"}]}, {"molecule": "B6", "values": [{"measurement": "Specific Activity", "setting": "[1]; chimeric variants", "value": 1.45, "unit": "µmol/min/mg"}, {"measurement": "Km", "setting": "[1]; chimeric variants", "value": 66.5, "unit": "mM"}]}, {"molecule": "B7", "values": [{"measurement": "NAD+ usage", "setting": "[4]; initial kinetic screening of S. cerevisiae ZWF1 (zwf1_sc) mutants, preliminary cofactor phenotype, NAD+ as cofactor", "value": "Yes"}, {"measurement": "NADP+ usage", "setting": "[4]; initial kinetic screening of S. cerevisiae ZWF1 (zwf1_sc) mutants, preliminary cofactor phenotype, NADP+ as cofactor", "value": "No"}, {"measurement": "cofactor utilization (NAD+ / NADP+)", "setting": "[4]; initial kinetic screening of S. cerevisiae ZWF1 mutants", "value": "enabled NAD+ utilization with concomitant loss of NADP+ utilization"}]}]}
